The values that follow come from article PMC7824274, “Separation of Coiled-Coil Structures in Lamin A/C Is Required for the Elongation of the Filament” (Cells, 2020).

What all share (settings): both partners purified
Assay [1] has as its target T1, lamin A/C 250-400 fragment, Y267C (human, UniProt P02545 250-400, Y267C).
T1 construct: lamin A/C, human, residues 250-400 with Y267C; the methods say that preys were His-tag cleaved; also called lamin 250-400 Y267C; source: E. coli BL21 (DE3), purified (cobalt-Talon, TEV cleavage, HiTrap Q, SEC); not shown: His-tag, N-terminal, cleaved
T1 sequence (looked up): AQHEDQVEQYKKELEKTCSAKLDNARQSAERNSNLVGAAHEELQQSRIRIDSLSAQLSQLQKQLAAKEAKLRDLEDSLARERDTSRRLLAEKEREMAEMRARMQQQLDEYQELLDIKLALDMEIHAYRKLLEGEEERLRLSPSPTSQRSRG
As to the kind of experiment: pull-down; His-tagged lamin 1-125 (wild type or L38C, L42C) on Ni-NTA resin, lamin 250-400 fragments (wild type or cysteine mutants) as prey; oxidized (0.5 mM GSSG) and reducing (5 mM TCEP) conditions; SDS-PAGE.

For assay [2], the target named is T2, lamin A/C 250-400 fragment, K316C (human, UniProt P02545 250-400, K316C).
T2 construct: lamin A/C, human, residues 250-400 with K316C; the methods say that preys were His-tag cleaved; also called lamin 250-400 K316C; source: E. coli BL21 (DE3), purified (cobalt-Talon, TEV cleavage, HiTrap Q, SEC); not shown: His-tag, N-terminal, cleaved
T2 sequence (looked up): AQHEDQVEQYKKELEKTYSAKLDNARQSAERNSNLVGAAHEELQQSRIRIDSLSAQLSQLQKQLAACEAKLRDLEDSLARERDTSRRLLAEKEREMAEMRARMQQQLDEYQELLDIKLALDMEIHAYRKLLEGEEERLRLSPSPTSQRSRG
The assay is described as above.

The target in assay [3] is T3, lamin A/C 250-400 fragment, wild type, tag-free (human, UniProt P02545 250-400).
T3 construct: lamin A/C, human, residues 250-400 (C-terminal part of coil 2); His-tag cleaved with TEV protease; also called lamin 250-400; coil 2 fragment; source: E. coli BL21 (DE3), purified (cobalt-Talon, TEV cleavage, HiTrap Q, SEC); not shown: His-tag, N-terminal, cleaved
T3 sequence (looked up): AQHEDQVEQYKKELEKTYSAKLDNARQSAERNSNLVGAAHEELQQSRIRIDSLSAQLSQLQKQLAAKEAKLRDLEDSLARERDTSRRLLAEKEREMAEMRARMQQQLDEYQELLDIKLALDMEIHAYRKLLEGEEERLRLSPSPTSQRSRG
Described as above.

Assay [4] addresses T4, His-tagged lamin A/C 250-400 fragment, L362C (human, UniProt P02545 250-400, L362C).
T4 construct: lamin A/C, human, residues 250-400 with L362C; also called His-lamin 250-400 L362C; source: E. coli BL21 (DE3), purified (cobalt-Talon, HiTrap Q, SEC); not shown: His-tag, N-terminal, kept
T4 sequence (looked up): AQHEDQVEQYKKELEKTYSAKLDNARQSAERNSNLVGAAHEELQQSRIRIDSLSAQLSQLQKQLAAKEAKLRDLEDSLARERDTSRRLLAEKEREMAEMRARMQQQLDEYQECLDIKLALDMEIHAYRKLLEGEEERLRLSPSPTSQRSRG
As to the kind of experiment: pull-down; His-tagged lamin 250-400 fragments on Ni-NTA resin with the lamin 1-125 fragment; reducing condition; SDS-PAGE.

In assay [5] the target is T5, His-tagged lamin A/C 250-400 fragment, wild type (human, UniProt P02545 250-400).
T5 construct: lamin A/C, human, residues 250-400 (C-terminal part of coil 2); pProEx-HTa vector: a TEV protease cleavage site stands between the His-tag and the lamin residues; also called His-lamin 250-400 WT; source: E. coli BL21 (DE3), purified (cobalt-Talon, HiTrap Q, SEC); not shown: His-tag, N-terminal, kept
T5 sequence (looked up): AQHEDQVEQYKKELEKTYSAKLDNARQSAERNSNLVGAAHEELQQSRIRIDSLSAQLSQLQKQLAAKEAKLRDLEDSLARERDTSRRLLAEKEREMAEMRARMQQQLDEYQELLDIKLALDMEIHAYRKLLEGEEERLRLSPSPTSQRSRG
As to the kind of experiment: pull-down; His-tagged lamin 250-400 fragments on Ni-NTA resin with the lamin 1-125 fragment; nonreducing (oxidized) condition; SDS-PAGE.

B1: His-tagged lamin A/C 1-125 fragment, wild type (domain or fragment, human, UniProt P02545 1-125, looked up)
chain: METPSQRRATRSGAQASSTPLSPTRITRLQEKEDLQELNDRLAVYIDRVRSLETENAGLRLRITESEEVVSREVSGIKAAYEAELGDARKTLDSVAKERARLQLELSKVREEFKELKARNTKKEG
notes: pProEx-HTa vector: a TEV protease cleavage site stands between the His-tag and the lamin residues; also called coil 1a fragment; source: E. coli BL21 (DE3), purified (cobalt-Talon, HiTrap Q, SEC); not shown: His-tag, N-terminal, kept
As to B1, the binding result in assay [1], in assay [2] and in assay [3] was “binds” in each case.

B2: lamin A/C 1-125 fragment, wild type, prey of Figure 6b (domain or fragment, human, UniProt P02545 1-125, looked up)
chain: METPSQRRATRSGAQASSTPLSPTRITRLQEKEDLQELNDRLAVYIDRVRSLETENAGLRLRITESEEVVSREVSGIKAAYEAELGDARKTLDSVAKERARLQLELSKVREEFKELKARNTKKEG
notes: the pull-down methods say that preys were His-tag cleaved lamin proteins; the purification paragraph names TEV cleavage only for lamin 250-400; also called coil 1a fragment; source: E. coli BL21 (DE3), purified (cobalt-Talon, HiTrap Q, SEC); not shown: His-tag, N-terminal, cleaved
Regarding B2, the binding result in assay [4] and in assay [5] was “binds” each time.
